In the assay the target is single antigen M1 peptide segment (monkeypox virus M1 protein) (Monkeypox virus isolate MPXV_USA_2022_MA001) (UniProt M1LBP0). Kind of assay: SPR.

The results in this text go back to patent EP4653453A1.

UniProt M1LBP0, sequence (M1LBP0 2-181 limits assumed): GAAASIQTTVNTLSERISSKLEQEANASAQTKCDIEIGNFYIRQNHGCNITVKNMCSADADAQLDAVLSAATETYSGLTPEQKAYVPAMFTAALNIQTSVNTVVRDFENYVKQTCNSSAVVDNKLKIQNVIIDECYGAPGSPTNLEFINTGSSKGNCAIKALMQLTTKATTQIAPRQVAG

Turning to neutralizing antibody 7D11, the dissociation constant (Kd) (usually the free concentration of one partner at which half of the binding sites on the other are occupied at equilibrium, for simple one-to-one binding) is 3.3 nM.
